The values below come from paper PMC10720265.

Assay in all cases: MYC IP followed by mass spectrometry (IP-MS)
Common to all, as to conditions: three biological replicates; HeLa cell lysates; signals normalized to bait protein levels; read off a plot

Assay [1] addresses NCBP2, CBC component, endogenous in HeLa cells (UniProt P52298).
The target in assay [2] is ARS2, endogenous in HeLa cells.
Assay [3] addresses NCBP1, CBC component, endogenous in HeLa cells (UniProt Q09161).
UniProt Q09161, sequence (Q09161 whole entry): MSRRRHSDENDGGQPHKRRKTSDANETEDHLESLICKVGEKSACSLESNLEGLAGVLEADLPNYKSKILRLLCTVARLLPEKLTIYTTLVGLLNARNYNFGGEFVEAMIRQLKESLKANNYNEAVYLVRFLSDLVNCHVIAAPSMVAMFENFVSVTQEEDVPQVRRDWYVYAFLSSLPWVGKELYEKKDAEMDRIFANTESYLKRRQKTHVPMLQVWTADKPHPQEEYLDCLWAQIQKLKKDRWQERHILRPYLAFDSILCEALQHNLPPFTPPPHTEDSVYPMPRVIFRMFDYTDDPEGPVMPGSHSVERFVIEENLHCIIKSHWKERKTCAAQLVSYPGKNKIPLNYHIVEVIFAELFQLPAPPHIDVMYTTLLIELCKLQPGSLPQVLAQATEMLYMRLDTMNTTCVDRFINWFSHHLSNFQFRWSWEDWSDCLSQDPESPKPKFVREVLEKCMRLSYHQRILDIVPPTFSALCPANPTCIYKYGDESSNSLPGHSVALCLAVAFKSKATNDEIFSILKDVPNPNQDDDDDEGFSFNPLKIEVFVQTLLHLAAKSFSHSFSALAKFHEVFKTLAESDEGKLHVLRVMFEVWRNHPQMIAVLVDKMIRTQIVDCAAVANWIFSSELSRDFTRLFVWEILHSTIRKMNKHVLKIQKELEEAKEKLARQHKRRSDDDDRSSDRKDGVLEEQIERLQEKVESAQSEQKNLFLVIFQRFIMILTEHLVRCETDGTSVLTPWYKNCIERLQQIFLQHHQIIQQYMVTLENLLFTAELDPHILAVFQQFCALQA

UniProt P52298, sequence (P52298 whole entry): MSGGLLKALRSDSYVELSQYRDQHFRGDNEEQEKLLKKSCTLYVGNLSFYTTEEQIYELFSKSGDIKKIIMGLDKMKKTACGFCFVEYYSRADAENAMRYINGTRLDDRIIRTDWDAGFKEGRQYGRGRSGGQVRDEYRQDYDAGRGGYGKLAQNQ

Turning to “Z1^1-209(WT), MYC-tagged N-terminal fragment of human ZFC3H1 (from UniProt O60293) … -> … (E->A; E->A; D->A; E->A; residue numbers not printed)”, the results for the other: log2 fold change (Z1 1-209(WT)/Z1 1-209(MUT)) in assay [1], in assay [2] and in assay [3] were 1.8 log2, 6.9 log2 and 2.1 log2, respectively.
